Our source for the switch fluorescence ratio values is the supplement of paper PMC10126150.

± gives the standard deviation of the averaged measurements.
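Further: ATP exposure 15 min at 22 °C before imaging.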

The data set relates to ATP. In words: switch fluorescence ratio, 500 uM ATP over buffer (Cy3 cluster intensity, sum of 5 cycles each) (fold (ratio)); higher = stronger signal-on switching upon ATP binding; sequences stand for … in TCGTCGGCAGCGTCAGATGTGTATAAGAGACAGTTTTTTTTTTTTTTTTTTTTTTTTT…TC. Particulars: aptamer strand: ATP DNA aptamer (quencher-CACCTGGGGGAGTATTGCGGAGGAAGG + anchor), 100 nM annealed; ATP concentration: 500 uM. The procedure, abridged:
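Between each of five buffer/ATP cycles, the flow-cell was stripped with NaOH and re-annealed. Each cycle imaged Cy3-labelled switching-strand clusters, annealed to 100 nM quencher-labelled ATP aptamer on a modified Illumina MiSeq flow-cell, first in selection buffer and then after 15 min with 500 uM ATP at 22 °C. The fluorescence ratio is summed target-cycle over summed buffer-cycle Cy3 intensity per cluster, averaged per switch-domain sequence, with clusters outside 100-1000 RFU excluded.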
For the sequence GGGTTTATAT, the switch fluorescence ratio amounted to 0.997 ± 0.022. Turning to ATCTCGGATT, the switch fluorescence ratio worked out at 0.9869 ± 0.0041.

Consider TTTGAGCTTT, for which the switch fluorescence ratio was 1.02 ± 0.018. Take AATAGCGACT: the switch fluorescence ratio worked out at 1.026 ± 0.0052. Take GTGAAAAGCA: the switch fluorescence ratio turned out to be 1.04 ± 0.014.

Turning to GACAGTTGGG, the switch fluorescence ratio amounted to 0.999 ± 0.017. For TAAAGGGGGA the value was 0.983 ± 0.039. As to TGGTGTTTTA, the switch fluorescence ratio turned out to be 0.994 ± 0.023.

With AATGAACGTT, the switch fluorescence ratio was found to be 1.03 ± 0.078. As for TTTTTGCTTA, the switch fluorescence ratio worked out at 0.993 ± 0.013. As for CTGTCCGTTG, the switch fluorescence ratio came out at 1.01 ± 0.017. For ACCATGTTTG, the switch fluorescence ratio is 1.012 ± 0.0072. As for GAAATGAATA, the switch fluorescence ratio was determined as 1 ± 0.011. Take TATACTTGGC: the switch fluorescence ratio stood at 1.07 ± 0.059. Consider GAGCATTTCC, for which the switch fluorescence ratio turned out to be 1.1 ± 0.043. Take AGGGGTAGTT: the switch fluorescence ratio came out at 1.01 ± 0.029. AGTTGAGAGG: the switch fluorescence ratio was determined as 0.972 ± 0.0088. Take AAGGATTGCG: the switch fluorescence ratio stood at 0.96 ± 0.047. With GCTAGAAGCG, the switch fluorescence ratio is 1.001 ± 0.0099. Next, TATAGCGCTT: 0.9905 ± 0.0035; AGGTATAAGC: 0.994 ± 0.043. In the case of TGGTTTGGCA, the switch fluorescence ratio came to 0.962 ± 0.012. Next, GATTTCTTAT: 0.999 ± 0.052; AGAAATTGTT: 0.999 ± 0.047. CTAGTGAGTT: the switch fluorescence ratio worked out at 0.999 ± 0.023. Turning to CGTTAATCGT, the switch fluorescence ratio is 1.01 ± 0.021.

As to GACATGGGGA, the switch fluorescence ratio came out at 1.06 ± 0.015. On to TAGAGGGCGG, for which the switch fluorescence ratio is 1.03 ± 0.012. On to GATGTAATTT, for which the switch fluorescence ratio was 1.03 ± 0.023.

As to GATGGGTTTG, the switch fluorescence ratio came out at 0.991 ± 0.028.

Regarding GGGGGAAGGC, the switch fluorescence ratio was found to be 1.15 ± 0.23. Regarding ATGGGGCATC, the switch fluorescence ratio was determined as 0.9907 ± 0.0082. Regarding GGACTCGGGG, the switch fluorescence ratio amounted to 1.04 ± 0.043. For the sequence GGGTATGGGG, the switch fluorescence ratio amounted to 1.01 ± 0.031. For CCAATAGAGT, the switch fluorescence ratio is 0.997 ± 0.046. TCGATTAATT: the switch fluorescence ratio stood at 1.1 ± 0.079. For ATAAAGTCAC the value was 1.16 ± 0.18; for TATCGGATAA, 0.9947 ± 0.0037; for ATCGATCTGG, 1 ± 0.015. With CTGGAGCGCT, the switch fluorescence ratio is 1.22 ± 0.054. In the case of CCTGGGGGGC, the switch fluorescence ratio was 1.09 ± 0.18. For the sequence AAAATGAAAA, the switch fluorescence ratio was found to be 0.987 ± 0.0071. Consider GTCTGAAGGA, for which the switch fluorescence ratio is 0.9791 ± 0.0055. Turning to GTTTTGCATA, the switch fluorescence ratio stood at 1.01 ± 0.028. For TTGAGGAATG, the switch fluorescence ratio came out at 1.02 ± 0.018.

In the case of AGGTAGTGTC, the switch fluorescence ratio worked out at 1.03 ± 0.023. On to TAGTTCTCTT, for which the switch fluorescence ratio is 0.989 ± 0.026. On to TGCAGTTTGA, for which the switch fluorescence ratio was 1.02 ± 0.012.

For CATGAGGTTA, the switch fluorescence ratio worked out at 0.9855 ± 0.0094.

Consider TCATGTTCGG, for which the switch fluorescence ratio worked out at 1.02 ± 0.034. Take TTTAATACGG: the switch fluorescence ratio amounted to 1.04 ± 0.011. On to GCGAGGACAT, for which the switch fluorescence ratio is 1.04 ± 0.012. Consider TGGGGGCGTT, for which the switch fluorescence ratio amounted to 1 ± 0.034. As to CGTATGAATA, the switch fluorescence ratio amounted to 0.984 ± 0.011. Consider ATTGAGCCAG, for which the switch fluorescence ratio was 1.03 ± 0.023. For GTGGATGGGG, the switch fluorescence ratio stood at 1.05 ± 0.13.

GGGAAAATCA: the switch fluorescence ratio turned out to be 0.999 ± 0.02. Take CGGAAAAATT: the switch fluorescence ratio was 1.04 ± 0.12. As to GGATTAAAGC, the switch fluorescence ratio stood at 0.998 ± 0.022. Next, TAATTAGGGA: 0.986 ± 0.044; GACATAAAAA: 0.986 ± 0.076.

TGGTGAGGTG: the switch fluorescence ratio was determined as 1.02 ± 0.02. With TTTTGTAGTG, the switch fluorescence ratio was determined as 0.988 ± 0.042. For the sequence TCAGAGGATC, the switch fluorescence ratio worked out at 0.961 ± 0.017. For TTTGGGGTTG the value was 0.999 ± 0.037; for AGTTGTTTTG, 0.998 ± 0.015. GGGTTCGGGG: the switch fluorescence ratio is 1 ± 0.056. In the case of CGCATCAAGT, the switch fluorescence ratio turned out to be 1.01 ± 0.031. CTAGCTTAGC: the switch fluorescence ratio is 0.9902 ± 0.0056. Consider AATTATGGGC, for which the switch fluorescence ratio is 1.023 ± 0.0064. Take AAGTTATCTG: the switch fluorescence ratio is 1.03 ± 0.027. With TGGGAAATTA, the switch fluorescence ratio was found to be 0.999 ± 0.024.

In the case of ACGTAAACGC, the switch fluorescence ratio was 1.085 ± 0.0018. For CTTGAATGTC the value was 1.05 ± 0.054; for GGGGAGCTAC, 1.17 ± 0.038. Next, GGAATGGGCG: 1.02 ± 0.042; ATGCAAGGTC: 1.12 ± 0.049; TTTTATATGG: 0.986 ± 0.021. Next, TTAGGCGCAT: 1.03 ± 0.025.
